Measurements reported in article PMC4086636.

Target: domain 4 of the anthrax protective antigen (Bacillus anthracis) (UniProt P13423)
Test: cross-linking

M18 scFv with L-DOPA at position H_D54
Experimental Crosslinking (%): 30.4%

M18 scFv with L-DOPA at position H_D56
Experimental Crosslinking (%): 36.2%

M18 scFv with L-DOPA at position H_G53
Experimental Crosslinking (%): 40.3%

M18 scFv with L-DOPA at position H_G55
Experimental Crosslinking (%): 5.1%

M18 scFv with L-DOPA at position H_N58
Experimental Crosslinking (%): 24.4%

M18 scFv with L-DOPA at position H_S31
Experimental Crosslinking (%): 51.9%

M18 scFv with L-DOPA at position H_W33
Experimental Crosslinking (%): 13.9%

M18 scFv with L-DOPA at position H_Y52
Experimental Crosslinking (%): 19.7%
